Experiments:
(GR)15: H-C(GR)15-OH [1] = target: T1, (GR)15: H-C(GR)15-OH; assay: indirect ELISA, coated uncoupled peptide
T1 construct: synthetic, not coupled to BSA; also called poly-GR DPR protein peptide
T1 peptide: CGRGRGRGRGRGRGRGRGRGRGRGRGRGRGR
Protocol: (§1) In brief, dipeptide repeat proteins were synthesized and purified by Schafer-N(Copenhagen, Denmark): (GA)₁₅: H-CHHHHHH(GA)₁₅-OH; (GP)₁₅: H-C(GP)₁₅-OH; (GR)₁₅: H-C(GR)₁₅-OH; (PA)₁₅: H-C(PA)₁₅-OH; (PR)₁₅: H—C(PR)₁₅-OH. 96-well microplates (Corning Incorporated, Corning, USA) were coated with dipeptide repeat protein peptides at a concentration of either 5 μg/ml or 20 μg/ml in coating buffer (15 mM Na₂CO₃, 35 mM NaHCO₃, pH 9.42). Non-specific binding sites were blocked for 1 h at room temperature with PBS/0.1% Tween®-20 containing 2% BSA (Sigma-Aldrich, Buchs, Switzerland). Primary antibodies were diluted to the indicated concentrations and incubated for 1 h at room temperature, followed by incubation with a donkey anti-human IgG Fcγ-specific antibody conjugated with HRP (Jackson ImmunoResearch Laboratories, Inc., West Grove, USA). Binding was determined by measurement of HRP activity in a standard colorimetric assay. EC₅₀ values were estimated by non-linear regression using GraphPad Prism software (San Diego, USA). The binding specificity and EC₅₀ of human-derived antibodies for C9orf72 dipeptide repeat protein peptides (GA)₁₅, (GP)₁₅, (GR)₁₅, (PA)₁₅ and (PR)₁₅ were determined by indirect ELISA.

[2] = target: T2, transactive response DNA binding protein 43 (UniProt Q13148 1-414, limits assumed); assay: indirect ELISA, coated protein
T2 construct: also called TDP-43
Protocol: (§2) 96-well microplates (Corning) were coated with different target proteins at a concentration of 1-10 μg/ml in coating buffer (15 mM Na₂CO₃, 35 mM NaHCO₃, pH 9.42). Non-specific binding sites were blocked for 1 h at RT with PBS/0.1% Tween®-20 containing 2% BSA (Sigma-Aldrich, Buchs, Switzerland). […] Binding was determined using donkey anti-human IgG Fcγ-specific antibody conjugated with HRP (Jackson ImmunoResearch Laboratories, Inc., West Grove, USA) followed by measurement of HRP activity in a standard colorimetric assay. Signals for target protein were calculated in fold increase above median.

Tau = Tau (UniProt P10636-8 1-441, limits assumed); assay: indirect ELISA, coated protein
Protocol: as §2

transthyrethin = transthyrethin (UniProt P02766 21-147); assay: indirect ELISA, coated protein
Protocol: as §2

[3] = target: T3, full-length amyloid precursor protein (UniProt P05067 18-770, limits assumed); assay: indirect ELISA, coated protein
T3 construct: also called flAPP
Protocol: as §2

(GP)15: H-C(GP)15-OH [4] = target: T4, (GP)15: H-C(GP)15-OH; assay: indirect ELISA, coated peptide
T4 construct: synthetic, not coupled to BSA; also called poly-GP DPR protein peptide
T4 peptide: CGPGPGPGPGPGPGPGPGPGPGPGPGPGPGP
Protocol: as §1

(PA)15: H-C(PA)15-OH = target: T5, (PA)15: H-C(PA)15-OH; assay: indirect ELISA, coated peptide
T5 construct: synthetic, not coupled to BSA; also called poly-PA DPR protein peptide
T5 peptide: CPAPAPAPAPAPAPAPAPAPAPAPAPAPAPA
Protocol: as §1

(GR)15: H-C(GR)15-OH [5] = target: T1, (GR)15: H-C(GR)15-OH; assay: indirect ELISA, uncoupled peptide coated, antibody titrated [also D00015 FIG. 3J]
Protocol: as §1, with “(PR)₁₅: H—C(PR)₁₅-OH. DPR protein peptides were then conjugated via a bifunctional linker (SMCC) to bovine serum albumin (BSA). 96-well microplates” for “(PR)₁₅: H—C(PR)₁₅-OH. 96-well microplates”, “coated with BSA-coupled or -uncoupled dipeptide repeat” for “coated with dipeptide repeat”, “and incubated 1 h” for “and incubated for 1 h”, “Diego, USA).” for “Diego, USA). The binding specificity and EC₅₀ of human-derived antibodies for C9orf72 dipeptide repeat protein peptides (GA)₁₅, (GP)₁₅, (GR)₁₅, (PA)₁₅ and (PR)₁₅ were determined by indirect ELISA.”

[6] = target: T6, BSA-coupled (GP)15 DPR protein peptide (bovine, conjugated via a bifunctional linker (SMCC) to bovine serum albumin); assay: Western blot, BSA-coupled peptide
T6 construct: also called BSA-(GP)15
Protocol: (§3) Resolved proteins were then electroblotted (Novex® Semi-Dry Blotter, 1 h, 25V) on methanol-activated PVDF membranes (Immobilon®-P Transfer Membrane, Merck & Cie, Schaffhausen, Switzerland) by the use of Novex® NuPAGE® transfer buffer 2× (Life Technologies Europe B.V., Zug, Switzerland). Non-specific binding sites were blocked overnight at 4° C. (or alternatively for 1 h at room temperature) with PBS/0.1% Tween®-20 containing 2% BSA (Sigma-Aldrich, Buchs, Switzerland) (PBST). […] Membranes were washed three times in PBST for 15 min at RT and then incubated with a donkey anti-human IgG Fcγ-specific antibody conjugated with HRP (1:20000 or 1:10000 dilution, Jackson ImmunoResearch Laboratories, Inc., West Grove, USA) for 1 h at room temperature. Antibody binding was determined by membrane development using ECL and ImageQuant 350 detection (GE Healthcare, Otelfingen, Switzerland).
(§4) The binding specificity of the human-derived antibodies to BSA-coupled C9orf72 dipeptide repeat proteins (GA)₁₅, (GP)₁₅, (GR)₁₅, (PA)₁₅ and (PR)₁₅ was determined by Western blot analysis.

[7] = target: T7, BSA-coupled (PA)15 DPR protein peptide (bovine, UniProt P02769 25-607, conjugated via a bifunctional linker (SMCC) to bovine serum albumin); assay: Western blot, BSA-coupled peptide
T7 construct: also called BSA-(PA)15
Protocol: as §3, §4

(GP)15: H-C(GP)15-OH [8] = target: T4, (GP)15: H-C(GP)15-OH; assay: indirect ELISA, uncoupled peptide coated, antibody titrated [also D00015 FIG. 3L]
Protocol: as §1, with “(PR)₁₅: H—C(PR)₁₅-OH. DPR protein peptides were then conjugated via a bifunctional linker (SMCC) to bovine serum albumin (BSA). 96-well microplates” for “(PR)₁₅: H—C(PR)₁₅-OH. 96-well microplates”, “coated with BSA-coupled or -uncoupled dipeptide repeat” for “coated with dipeptide repeat”, “and incubated 1 h” for “and incubated for 1 h”, “Diego, USA).” for “Diego, USA). The binding specificity and EC₅₀ of human-derived antibodies for C9orf72 dipeptide repeat protein peptides (GA)₁₅, (GP)₁₅, (GR)₁₅, (PA)₁₅ and (PR)₁₅ were determined by indirect ELISA.”

[9] = target: T7, BSA-coupled (PA)15 DPR protein peptide; assay: Western blot of BSA-coupled peptides
Protocol: as §3, §4

[10] = target: T8, BSA-coupled (GR)15 DPR protein peptide (bovine, UniProt P02769 25-607, conjugated via a bifunctional linker (SMCC) to bovine serum albumin); assay: Western blot of BSA-coupled peptides
T8 construct: also called BSA-(GR)15
Protocol: as §3, §4

[11] = target: T9, BSA-coupled (PR)15 DPR protein peptide (bovine, conjugated via a bifunctional linker (SMCC) to bovine serum albumin); assay: Western blot of BSA-coupled peptides
T9 construct: also called BSA-(PR)15
Protocol: as §3, §4

[12] = target: T10, (GA)15: H-CHHHHHH(GA)15-OH; assay: indirect ELISA, uncoupled peptide coated, antibody titrated [also D00011 FIG. 2L]
T10 construct: synthetic, not coupled to BSA; also called poly-GA DPR protein peptide
T10 peptide: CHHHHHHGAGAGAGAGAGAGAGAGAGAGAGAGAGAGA
Protocol: as §1

(PR)15: H-C(PR)15-OH = target: T11, (PR)15: H-C(PR)15-OH; assay: indirect ELISA, coated peptide
T11 construct: synthetic, not coupled to BSA; also called poly-PR DPR protein peptide
T11 peptide: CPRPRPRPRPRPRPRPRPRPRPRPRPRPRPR
Protocol: as §1

(GR)15: H-C(GR)15-OH [13] = target: T1, (GR)15: H-C(GR)15-OH; assay: indirect ELISA, coated peptide
Protocol: as §1

[14] = target: T6, BSA-coupled (GP)15 DPR protein peptide; assay: indirect ELISA, BSA-coupled peptide coated, antibody titrated [also D00015 FIG. 3L]
Protocol: as §1, with “(PR)₁₅: H—C(PR)₁₅-OH. DPR protein peptides were then conjugated via a bifunctional linker (SMCC) to bovine serum albumin (BSA). 96-well microplates” for “(PR)₁₅: H—C(PR)₁₅-OH. 96-well microplates”, “coated with BSA-coupled or -uncoupled dipeptide repeat” for “coated with dipeptide repeat”, “and incubated 1 h” for “and incubated for 1 h”, “Diego, USA).” for “Diego, USA). The binding specificity and EC₅₀ of human-derived antibodies for C9orf72 dipeptide repeat protein peptides (GA)₁₅, (GP)₁₅, (GR)₁₅, (PA)₁₅ and (PR)₁₅ were determined by indirect ELISA.”

T6 sequence (P02769 25-607 limits assumed): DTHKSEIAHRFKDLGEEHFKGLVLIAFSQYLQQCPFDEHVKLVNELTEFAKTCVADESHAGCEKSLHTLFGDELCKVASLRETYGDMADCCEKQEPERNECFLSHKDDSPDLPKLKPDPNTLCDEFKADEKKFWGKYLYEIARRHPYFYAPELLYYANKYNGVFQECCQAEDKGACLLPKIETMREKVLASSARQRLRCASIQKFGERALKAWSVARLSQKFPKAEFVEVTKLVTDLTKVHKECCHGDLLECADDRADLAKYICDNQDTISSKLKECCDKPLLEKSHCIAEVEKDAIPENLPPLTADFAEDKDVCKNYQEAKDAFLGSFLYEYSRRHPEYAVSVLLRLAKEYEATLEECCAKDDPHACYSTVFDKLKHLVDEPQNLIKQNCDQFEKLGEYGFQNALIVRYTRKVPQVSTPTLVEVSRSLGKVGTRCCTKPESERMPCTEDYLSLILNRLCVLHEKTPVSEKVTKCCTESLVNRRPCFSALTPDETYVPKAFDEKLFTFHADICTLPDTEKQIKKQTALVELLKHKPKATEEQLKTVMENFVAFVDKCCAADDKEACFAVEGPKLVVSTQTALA
T7 sequence (P02769 25-607 limits assumed): as above
T9 sequence (P02769 25-607 limits assumed): as above
T8 sequence (P02769 25-607 limits assumed): as above
Tau, sequence (P10636 other isoform, or with tags, fused parts or gaps limits assumed): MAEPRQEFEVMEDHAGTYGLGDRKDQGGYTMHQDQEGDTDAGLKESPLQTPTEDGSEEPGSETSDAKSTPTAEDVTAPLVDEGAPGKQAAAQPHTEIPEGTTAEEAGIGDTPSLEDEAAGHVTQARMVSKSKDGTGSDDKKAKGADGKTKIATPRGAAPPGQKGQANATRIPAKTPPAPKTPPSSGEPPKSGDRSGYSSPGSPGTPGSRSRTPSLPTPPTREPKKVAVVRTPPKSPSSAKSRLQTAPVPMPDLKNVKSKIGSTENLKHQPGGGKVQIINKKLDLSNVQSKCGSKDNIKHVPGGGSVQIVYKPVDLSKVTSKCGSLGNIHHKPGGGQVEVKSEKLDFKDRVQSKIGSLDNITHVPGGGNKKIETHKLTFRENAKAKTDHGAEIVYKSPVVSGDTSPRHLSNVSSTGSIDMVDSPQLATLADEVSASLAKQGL
T3 sequence (P05067 18-770 limits assumed): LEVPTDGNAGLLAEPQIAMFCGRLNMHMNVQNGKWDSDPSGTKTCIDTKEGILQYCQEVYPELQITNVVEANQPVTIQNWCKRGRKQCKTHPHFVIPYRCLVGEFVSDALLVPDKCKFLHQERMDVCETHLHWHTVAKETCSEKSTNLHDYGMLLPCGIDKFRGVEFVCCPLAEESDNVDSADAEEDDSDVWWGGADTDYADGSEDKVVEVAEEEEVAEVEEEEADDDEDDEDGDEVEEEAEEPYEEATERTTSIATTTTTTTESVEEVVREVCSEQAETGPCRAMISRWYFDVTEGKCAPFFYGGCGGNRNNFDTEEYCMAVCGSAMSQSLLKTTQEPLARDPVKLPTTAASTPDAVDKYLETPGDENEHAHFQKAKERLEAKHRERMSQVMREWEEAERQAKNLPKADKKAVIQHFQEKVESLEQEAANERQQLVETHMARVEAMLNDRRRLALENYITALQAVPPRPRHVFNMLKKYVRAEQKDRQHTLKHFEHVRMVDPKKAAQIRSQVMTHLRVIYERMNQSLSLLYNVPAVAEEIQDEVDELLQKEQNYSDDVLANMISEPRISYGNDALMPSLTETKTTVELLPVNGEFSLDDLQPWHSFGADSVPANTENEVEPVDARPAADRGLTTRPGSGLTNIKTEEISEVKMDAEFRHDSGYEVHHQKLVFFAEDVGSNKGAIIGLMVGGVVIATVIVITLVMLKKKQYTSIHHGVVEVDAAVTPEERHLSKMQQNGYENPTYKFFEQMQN
T2 sequence (Q13148 whole entry): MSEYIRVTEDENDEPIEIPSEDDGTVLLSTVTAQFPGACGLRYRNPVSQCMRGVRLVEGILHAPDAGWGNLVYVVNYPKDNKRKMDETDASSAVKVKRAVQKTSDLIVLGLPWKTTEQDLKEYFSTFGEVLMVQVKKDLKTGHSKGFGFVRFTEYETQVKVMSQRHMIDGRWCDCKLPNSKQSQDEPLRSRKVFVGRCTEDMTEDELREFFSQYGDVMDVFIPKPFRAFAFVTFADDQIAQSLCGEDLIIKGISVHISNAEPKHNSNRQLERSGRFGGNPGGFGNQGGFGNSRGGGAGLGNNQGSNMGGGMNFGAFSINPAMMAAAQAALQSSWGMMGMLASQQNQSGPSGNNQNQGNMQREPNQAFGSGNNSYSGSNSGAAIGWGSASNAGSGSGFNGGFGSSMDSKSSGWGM

B1: NI-308.46F8 (antibody, V domains shown)
VH: QVQLVESGGGVVRPGGSLRLSCTASGFTFDEYGMSWVRQVPGKGLEWVSGINWNGATTRYADSVKGRFTISRDNAKNSLYLQMNSLRAEDTALYHCARDGCRNTSCYIWDWFDPWGQGTLVTVSS
VL: CQSVLTQPPSVSAAPGQKVTISCSGSSSNIGNNYVCWYQNLPGTAPKLLIYDDNKRPSGIPDRFSGSKSGTSATLGITGLQTGDEADYYCGTWDSSLSVVVFGGGTKLTVL
For B1, the EC50 ((GR)15: H-C(GR)15-OH [1]) was 0.0406 µM, the binding result [2] was “no binding (tested: 20 nM)” and the binding result (Tau) was “no binding (tested: 20 nM)”. B1: no binding (tested: 20 nM) (transthyrethin); no binding (tested: 20 nM) [3]; no binding ((GP)15: H-C(GP)15-OH [4]). For the same binder, the binding result ((PA)15: H-C(PA)15-OH) was “no binding”, the EC50 ((GR)15: H-C(GR)15-OH [5]) was 0.0903 µM and the binding result [6] was “no binding (tested: 10 nM or 100 nM)”. B1: no binding (tested: 10 nM or 100 nM) [7].

B2: NI-308.12A3 (antibody, V domains shown)
VH: EVQLVETGGGLVQPGGSLRLSCVGSGFLFSDFEMDWVRQAPGKGLEWISYISGDGNIIYQTDSVKGRFTISRDNAKNSLFLQMDSLTVEDTAVYYCARDARENCGGDCYSTSFDFWGQGTLVTVSS
VL: DIQMTQSPDSLAVSLGERATINCKSSQSLLYTANNRNYLAWYQKKAGQPPKLLIHWASTRASGVPDRFSGSGSGTDFILTISSLQAEDVAVYFCQHYYNSPRTFGQGTKVEIK
notes: Recombinant complete human IgG1, kappa
For B2, the EC50 ((GP)15: H-C(GP)15-OH [8]) was 0.0022 µM, the binding result [9] was “no binding” and the binding result [10] was “no binding”. For the same binder, the binding result [11] was “no binding”, the EC50 [12] was 0.019 µM and the binding result ((PR)15: H-C(PR)15-OH) was “no binding”. For the same binder, the binding result ((PA)15: H-C(PA)15-OH) was “no binding”, the binding result ((GR)15: H-C(GR)15-OH [13]) was “no binding” and the EC50 [14] was 0.0061 µM.
